Results on seven molecules are retold here after publication PMC5799168 (Scientific Reports, 2018).

By Km is commonly meant the concentration of substrate that gives half-maximal velocity. Broadly, the Vmax is the rate approached at saturating substrate.

The subject of the series is wild-type and mutant Ndi1. Put plainly: Kinetic parameters of the oxidoreductase activity of wild-type and mutant Ndi1 for ubiquinone-1. The conditions noted are these: for Km: apparent Km for ubiquinone-1 (2.4–60 µM); for Km / Vmax: NADH fixed at 100 µM; for Vmax, % of the wild-type activity / increase of Km value for ubiquinone-1 in comparison to wild-type enzyme: relative to wild-type Ndi1; for Vmax: ubiquinone-1 as substrate (2.4–60 µM). The format is biochemical, Saccharomyces cerevisiae. As for the experimental part: This unique structure appears to be related to the competitive nature of the inhibition of Ndi1 oxidoreductase activity by stigmatellin. It is therefore hypothesized that L444, I459, R460, and S461, which interact with stigmatellin at the STG-1a site, are also involved in the binding of the substrate ubiquinone (Fig. 5). This hypothesis was evaluated by examining the effects of mutations of the proximal L444 and I459 on the kinetics of the enzymatic reaction of Ndi1. The effect of the mutation of S484, which specifically interacts with stigmatellin at the STG-1b site, was examined as a control. Furthermore, the effects of mutations of W63, P92, A393, Q394, H397, L447, Y482, M485, and L487, which interact with the aromatic head group of stigmatellin at the STG-1a and STG-1b sites, were also examined. Moreover, to investigate the functional role of the STG-2 site in ubiquinone binding, a mutation was also introduced to R479.
NADH-ubiquinone oxidoreductase activity was measured as described previously. In brief, the reaction was started by adding 100 µM NADH to the enzyme mixture containing 10 ng/mL Ndi1, 50 mM sodium phosphate (pH 6.0) and 1 mM EDTA, which was pre-incubated with various concentrations of ubiquinone-1 for 1 min. The decrease in 340 nm absorbance was measured as an indication of the oxidation of NADH (ε = 6.22 mM^−1 cm^−1) with a Shimadzu UV2000 spectrophotometer (Kyoto, Japan). The enzymatic activity obtained with 100 µM NADH and 60 µM ubiquinone-1 in the absence of any inhibitors (100% activity) catalyzed the oxidation of 1,890 μmol NADH/min/mg Ndi1. The concentrations of inhibitors required to obtain the half-maximal inhibition (IC50) were estimated by non-linear regression dose-response curves. The inhibition mode of each inhibitor for ubiquinone-1 was determined by the intersection point in double-reciprocal plots (Fig. 2B–E). To objectively evaluate the inhibition mode, the data of the inhibition kinetics were fitted to the Eq. (1) of mixed model inhibition in the Prism6 software program (GraphPad Software, Inc., La Jolla, CA).1 V=Vmax[S]/[S](1+[I]/αKi)+Km(1+[I]/Ki) […]
To determine the kinetic parameters of wild-type and mutant enzymes for ubiquinone-1, the NADH oxidation rates were measured in a fixed concentration of NADH (100 µM) and different concentrations of ubiquinone-1 (2.4–60 µM). Apparent Km and Vmax values were obtained by fitting a data set of initial velocity versus substrate concentration to the Michaelis-Menten model equation in the Prism6 software program.
Site-directed mutagenesis. The amino acid replacements of Ndi1 were basically performed with PrimeSTAR mutagenesis basal kit (Takara, Japan) using pET16b(NDI1-m) (2) and a synthetic oligonucleotide primer set (Table S2). The mutagenesis of H397 was performed with a QuikChange II XL site-directed mutagenesis kit (Stratagene, CA). Each mutation was confirmed through DNA sequencing (DNA sequencing service, Eurofins). The purification procedure of wild-type and mutant enzymes, used for the determination of the kinetic parameters (Table 2), was basically the same as the above procedure, without the replacement of the detergent from Triton X -100 with DDM. After washing the enzyme with buffer A containing 0.1% Triton X-100 and 15 mM histidine, 0.02% Triton X-100 was added to all buffer as a substitute for DDM. With the exception of 5 mutants containing L444D, I459A, […]
yield of the wild-type enzyme. […]

B1: H397A: recombinant Ndi1 mutant H397A (protein, UniProt P32340 27-513, looked up, variant H397A)
Rotenone-insensitive …: STGVENSGAGPTSFKTMKVIDPQHSDKPNVLILGSGWGAISFLKHIDTKKYNVSIISPRSYFLFTPLLPSAPVGTVDEKSIIEPIVNFALKKKGNVTYYEAEATSINPDRNTVTIKSLSAVSQLYQPENHLGLHQAEPAEIKYDYLISAVGAEPNTFGIPGVTDYGHFLKEIPNSLEIRRTFAANLEKANLLPKGDPERRRLLSIVVVGGGPTGVEAAGELQDYVHQDLRKFLPALAEEVQIHLVEALPIVLNMFEKKLSSYAQSHLENTSIKVHLRTAVAKVEEKQLLAKTKHEDGKITEETIPYGTLIWATGNKARPVITDLFKKIPEQNSSKRGLAVNDFLQVKGSNNIFAIGDNAFAGLPPTAQVAAQEAEYLAKNFDKMAQIPNFQKNLSSRKDKIDLLFEENNFKPFKYNDLGALAYLGSERAIATIRSGKRTFYTGGGLMTFYLWRILYLSMILSARSRLKVFFDWIKLAFFKRDFFKGL
Turning to B1, the Km turned out to be 35 ± 2.7 µM; the “Vmax, % of the wild-type activity” value is given as 44%; the “increase of Km value for ubiquinone-1 in comparison to wild-type enzyme” value came to 1.5 fold; the Vmax worked out at 463 ± 17 µmol/min/mg.

B2: M485A: recombinant Ndi1 mutant M485A (protein, UniProt P32340 27-513, looked up, variant M485A)
Rotenone-insensitive …: STGVENSGAGPTSFKTMKVIDPQHSDKPNVLILGSGWGAISFLKHIDTKKYNVSIISPRSYFLFTPLLPSAPVGTVDEKSIIEPIVNFALKKKGNVTYYEAEATSINPDRNTVTIKSLSAVSQLYQPENHLGLHQAEPAEIKYDYLISAVGAEPNTFGIPGVTDYGHFLKEIPNSLEIRRTFAANLEKANLLPKGDPERRRLLSIVVVGGGPTGVEAAGELQDYVHQDLRKFLPALAEEVQIHLVEALPIVLNMFEKKLSSYAQSHLENTSIKVHLRTAVAKVEEKQLLAKTKHEDGKITEETIPYGTLIWATGNKARPVITDLFKKIPEQNSSKRGLAVNDFLQVKGSNNIFAIGDNAFAGLPPTAQVAHQEAEYLAKNFDKMAQIPNFQKNLSSRKDKIDLLFEENNFKPFKYNDLGALAYLGSERAIATIRSGKRTFYTGGGLMTFYLWRILYLSAILSARSRLKVFFDWIKLAFFKRDFFKGL
On to B2, for which the Km was determined as 18.6 ± 1.1 µM; the “Vmax, % of the wild-type activity” value was determined as 28%; the Vmax worked out at 292 ± 9.9 µmol/min/mg.

B3: Q394A: recombinant Ndi1 mutant Q394A (protein, UniProt P32340 27-513, looked up, variant Q394A)
Rotenone-insensitive …: STGVENSGAGPTSFKTMKVIDPQHSDKPNVLILGSGWGAISFLKHIDTKKYNVSIISPRSYFLFTPLLPSAPVGTVDEKSIIEPIVNFALKKKGNVTYYEAEATSINPDRNTVTIKSLSAVSQLYQPENHLGLHQAEPAEIKYDYLISAVGAEPNTFGIPGVTDYGHFLKEIPNSLEIRRTFAANLEKANLLPKGDPERRRLLSIVVVGGGPTGVEAAGELQDYVHQDLRKFLPALAEEVQIHLVEALPIVLNMFEKKLSSYAQSHLENTSIKVHLRTAVAKVEEKQLLAKTKHEDGKITEETIPYGTLIWATGNKARPVITDLFKKIPEQNSSKRGLAVNDFLQVKGSNNIFAIGDNAFAGLPPTAAVAHQEAEYLAKNFDKMAQIPNFQKNLSSRKDKIDLLFEENNFKPFKYNDLGALAYLGSERAIATIRSGKRTFYTGGGLMTFYLWRILYLSMILSARSRLKVFFDWIKLAFFKRDFFKGL
Take B3: the Km is 24.5 ± 1.7 µM; the “Vmax, % of the wild-type activity” value stood at 37%; the Vmax amounted to 391 ± 3.3 µmol/min/mg.

B4: R479A: recombinant Ndi1 mutant R479A (protein, UniProt P32340 27-513, looked up, variant R479A)
Rotenone-insensitive …: STGVENSGAGPTSFKTMKVIDPQHSDKPNVLILGSGWGAISFLKHIDTKKYNVSIISPRSYFLFTPLLPSAPVGTVDEKSIIEPIVNFALKKKGNVTYYEAEATSINPDRNTVTIKSLSAVSQLYQPENHLGLHQAEPAEIKYDYLISAVGAEPNTFGIPGVTDYGHFLKEIPNSLEIRRTFAANLEKANLLPKGDPERRRLLSIVVVGGGPTGVEAAGELQDYVHQDLRKFLPALAEEVQIHLVEALPIVLNMFEKKLSSYAQSHLENTSIKVHLRTAVAKVEEKQLLAKTKHEDGKITEETIPYGTLIWATGNKARPVITDLFKKIPEQNSSKRGLAVNDFLQVKGSNNIFAIGDNAFAGLPPTAQVAHQEAEYLAKNFDKMAQIPNFQKNLSSRKDKIDLLFEENNFKPFKYNDLGALAYLGSERAIATIRSGKRTFYTGGGLMTFYLWAILYLSMILSARSRLKVFFDWIKLAFFKRDFFKGL
Regarding B4, the Km is 11.5 ± 0.58 µM; the “Vmax, % of the wild-type activity” value worked out at 30%; the Vmax is 316 ± 6.1 µmol/min/mg.

B5: L447N: recombinant Ndi1 mutant L447N (protein, UniProt P32340 27-513, looked up, variant L447N)
Rotenone-insensitive …: STGVENSGAGPTSFKTMKVIDPQHSDKPNVLILGSGWGAISFLKHIDTKKYNVSIISPRSYFLFTPLLPSAPVGTVDEKSIIEPIVNFALKKKGNVTYYEAEATSINPDRNTVTIKSLSAVSQLYQPENHLGLHQAEPAEIKYDYLISAVGAEPNTFGIPGVTDYGHFLKEIPNSLEIRRTFAANLEKANLLPKGDPERRRLLSIVVVGGGPTGVEAAGELQDYVHQDLRKFLPALAEEVQIHLVEALPIVLNMFEKKLSSYAQSHLENTSIKVHLRTAVAKVEEKQLLAKTKHEDGKITEETIPYGTLIWATGNKARPVITDLFKKIPEQNSSKRGLAVNDFLQVKGSNNIFAIGDNAFAGLPPTAQVAHQEAEYLAKNFDKMAQIPNFQKNLSSRKDKIDLLFEENNFKPFKYNDLGANAYLGSERAIATIRSGKRTFYTGGGLMTFYLWRILYLSMILSARSRLKVFFDWIKLAFFKRDFFKGL
With B5, the Km was found to be 17.9 ± 1.8 µM; the “Vmax, % of the wild-type activity” value is recorded as 13%; the Vmax came out at 140 ± 7.1 µmol/min/mg.

B6: M485E: recombinant Ndi1 mutant M485E (protein, UniProt P32340 27-513, looked up, variant M485E)
Rotenone-insensitive …: STGVENSGAGPTSFKTMKVIDPQHSDKPNVLILGSGWGAISFLKHIDTKKYNVSIISPRSYFLFTPLLPSAPVGTVDEKSIIEPIVNFALKKKGNVTYYEAEATSINPDRNTVTIKSLSAVSQLYQPENHLGLHQAEPAEIKYDYLISAVGAEPNTFGIPGVTDYGHFLKEIPNSLEIRRTFAANLEKANLLPKGDPERRRLLSIVVVGGGPTGVEAAGELQDYVHQDLRKFLPALAEEVQIHLVEALPIVLNMFEKKLSSYAQSHLENTSIKVHLRTAVAKVEEKQLLAKTKHEDGKITEETIPYGTLIWATGNKARPVITDLFKKIPEQNSSKRGLAVNDFLQVKGSNNIFAIGDNAFAGLPPTAQVAHQEAEYLAKNFDKMAQIPNFQKNLSSRKDKIDLLFEENNFKPFKYNDLGALAYLGSERAIATIRSGKRTFYTGGGLMTFYLWRILYLSEILSARSRLKVFFDWIKLAFFKRDFFKGL
Consider B6, for which the Km was 63.5 ± 7.8 µM; the “Vmax, % of the wild-type activity” value was found to be 112%; the “increase of Km value for ubiquinone-1 in comparison to wild-type enzyme” value was found to be 2.8 fold; the Vmax amounted to 1190 ± 96 µmol/min/mg.

B7: P92A: recombinant Ndi1 mutant P92A (protein, UniProt P32340 27-513, looked up, variant P92A)
Rotenone-insensitive …: STGVENSGAGPTSFKTMKVIDPQHSDKPNVLILGSGWGAISFLKHIDTKKYNVSIISPRSYFLFTALLPSAPVGTVDEKSIIEPIVNFALKKKGNVTYYEAEATSINPDRNTVTIKSLSAVSQLYQPENHLGLHQAEPAEIKYDYLISAVGAEPNTFGIPGVTDYGHFLKEIPNSLEIRRTFAANLEKANLLPKGDPERRRLLSIVVVGGGPTGVEAAGELQDYVHQDLRKFLPALAEEVQIHLVEALPIVLNMFEKKLSSYAQSHLENTSIKVHLRTAVAKVEEKQLLAKTKHEDGKITEETIPYGTLIWATGNKARPVITDLFKKIPEQNSSKRGLAVNDFLQVKGSNNIFAIGDNAFAGLPPTAQVAHQEAEYLAKNFDKMAQIPNFQKNLSSRKDKIDLLFEENNFKPFKYNDLGALAYLGSERAIATIRSGKRTFYTGGGLMTFYLWRILYLSMILSARSRLKVFFDWIKLAFFKRDFFKGL
In the case of B7, the Km is 25.6 ± 2.2 µM; the “Vmax, % of the wild-type activity” value turned out to be 1%; the Vmax stood at 11.3 ± 0.4 µmol/min/mg.
